Results as given in patent US20250152742A1, “COMPOSITIONS AND METHODS FOR NEUROLOGICAL DISEASES” (Trames Bio, Inc., priority 2022, published 2025).

Tested on: engineered chimeric receptor SEQ ID NO: 33 and its mutants (human α7-nAChR ligand binding domain / human GlyRα1 ion pore domain) in Lenti-X 293T cells
Experiment: YFP fluorescence quenching anion reporter plate reader assay (percent quench, EC50)
Type: cell-based
Settings: for YFP fluorescence quenching using CNL001 (percent quench): receptor named in row; for YFP fluorescence quenching using Varenicline, 3 nM var: ligand Varenicline 3 nM; for YFP fluorescence quenching using Varenicline, 30 nM var: ligand Varenicline 30 nM; for YFP fluorescence quenching using Varenicline, 300 nM var: ligand Varenicline 300 nM; for YFP fluorescence quenching using Varenicline, 500 nM var: ligand Varenicline 500 nM; for YFP fluorescence quenching using Varenicline, 1 uM var: ligand Varenicline 1 uM
Summary of the method: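 Lenti-X 293T cells co-expressing an anion-quenchable YFP were transiently transfected with receptor DNA, then ligand was added in NaI-substituted buffer (pH 7.2) after 30 min at 37 °C. Fluorescence was read about 2 min; percent quench = mean of last 10 s over 15 s pre-ligand baseline.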

B1: CODA1025: engineered receptor: R101F, L131G in SEQ ID NO: 33 (protein)
chain: MRCSPGGVWLALAASLLHVSLQGEFQRKLYKELVKNYNPLERPVANDSQPLTVYFSLSLLQIMDVDEKNQVLTTNIWLQMSWTDHYLQWNVSEYPGVKTVFFPDGQIWKPDILLYNSADERFDATFHTNVGVNSSGHCQYLPPGIFKSSCPMDLKNFPMDVQTCKLKFGSWSYGGWSLDLQMQEADISGYIPNGEWDLVGIPGKRSERFYECCKEPYPDVTFTVTMRRRMGYYLIQMYIPSLLIVILSWISFWINMDAAPARVGLGITTVLTMTTQSSGSRASLPKVSYVKAIDIWMAVCLLFVFSALLEYAAVNFVSRQHKELLRFRRKRRHHKSPMLNLFQEDEAGEGRFNFSAYGMGPACLQAKDGISVKGANNSNTTNPPPAPSKSPEEMRKLFIQRAKKIDKISRIGFPMAFLIFNMFYWIIYKIVRREDVHNQ
modifications: synthetic sequence of chimeric LGIC
1 nM CNL001, first column so headed
  YFP fluorescence quenching using CNL001 (percent quench): −18.527%
1 nM CNL001, second column so headed
  YFP fluorescence quenching using CNL001 (percent quench): −21.577%
1 nM brd (TC-5619/Bradanicline)
  YFP fluorescence quenching using TC-5619/Bradanicline (percent quench): −10.61%
3 nM brd (TC-5619/Bradanicline)
  YFP fluorescence quenching using TC-5619/Bradanicline (percent quench): 2.63%
10 nM CNL001, first column so headed
  YFP fluorescence quenching using CNL001 (percent quench): 14.063%
10 nM CNL001, second column so headed
  YFP fluorescence quenching using CNL001 (percent quench): 49.818%
10 nM brd (TC-5619/Bradanicline)
  YFP fluorescence quenching using TC-5619/Bradanicline (percent quench): 17.71%
30 nM TC-6683
  YFP fluorescence quenching using TC-6683 (percent quench): −1.645%
30 nM brd (TC-5619/Bradanicline)
  YFP fluorescence quenching using TC-5619/Bradanicline (percent quench): 68.48%
50 nM CNL001, first column so headed
  YFP fluorescence quenching using CNL001 (percent quench): 77.765%
50 nM CNL001, second column so headed
  YFP fluorescence quenching using CNL001 (percent quench): 79.23%
50 nM abt (ABT-126)
  YFP fluorescence quenching using ABT-126 (percent quench): −11.53%
100 nM CNL001, first column so headed
  YFP fluorescence quenching using CNL001 (percent quench): 80.544%
100 nM CNL001, second column so headed
  YFP fluorescence quenching using CNL001 (percent quench): 80.695%
100 nM CNL002
  YFP fluorescence quenching (percent quench): 12.48%
100 nM abt (ABT-126)
  YFP fluorescence quenching using ABT-126 (percent quench): −7.61%
100 nM azd0328
  YFP fluorescence quenching using AZD-0328 (percent quench): 6.26%
300 nM TC-6683
  YFP fluorescence quenching using TC-6683 (percent quench): 3.043%
300 nM abt (ABT-126)
  YFP fluorescence quenching using ABT-126 (percent quench): 6.55%
300 nM azd0328
  YFP fluorescence quenching using AZD-0328 (percent quench): 37.98%
300 nM brd (TC-5619/Bradanicline)
  YFP fluorescence quenching using TC-5619/Bradanicline (percent quench): 75.12%
1 uM CNL001, first column so headed
  YFP fluorescence quenching using CNL001 (percent quench): 81.191%
1 uM CNL001, second column so headed
  YFP fluorescence quenching using CNL001 (percent quench): 82.385%
1 uM CNL002
  YFP fluorescence quenching (percent quench): 46.04%
1 uM abt (ABT-126)
  YFP fluorescence quenching using ABT-126 (percent quench): 25.08%
3 uM TC-6683
  YFP fluorescence quenching using TC-6683 (percent quench): 0.082%
10 uM ach (acetylcholine)
  YFP fluorescence quenching (percent quench): 12.57%
30 uM CNL002
  YFP fluorescence quenching (percent quench): 39.82%
30 uM TC-6683
  YFP fluorescence quenching using TC-6683 (percent quench): 2.449%
30 uM azd0328
  YFP fluorescence quenching using AZD-0328 (percent quench): 79.31%
50 uM ach (acetylcholine)
  YFP fluorescence quenching (percent quench): −3.46%
100 uM TC-6683
  YFP fluorescence quenching using TC-6683 (percent quench): 10.437%
100 uM ach (acetylcholine)
  YFP fluorescence quenching (percent quench): 12.65%
300 uM ach (acetylcholine)
  YFP fluorescence quenching (percent quench): −6.96%
500 uM ach (acetylcholine)
  YFP fluorescence quenching (percent quench): −6.77%
1 mM ach (acetylcholine)
  YFP fluorescence quenching (percent quench): 19.42%
3 mM ach (acetylcholine)
  YFP fluorescence quenching (percent quench): 65.06%
Ligand Facinicline 30 nM
  YFP fluorescence quenching using Facinicline, 30 nM fac: −8.99
Ligand Facinicline 300 nM
  YFP fluorescence quenching using Facinicline, 300 nM fac: 10.21
Ligand Facinicline 30 uM
  YFP fluorescence quenching using Facinicline, 30 uM fac: 78.24
Ligand TC-6987 1 uM
  YFP fluorescence quenching using TC-6987, 1 uM tc6987: −13.32
Ligand TC-6987 10 uM
  YFP fluorescence quenching using TC-6987, 10 uM tc6987: 43.71
Ligand TC-6987 500 uM
  YFP fluorescence quenching using TC-6987, 500 uM tc6987: 53.98
First column
  YFP fluorescence quenching using Varenicline, 3 nM var: 48.074
  YFP fluorescence quenching using Varenicline, 30 nM var: 70.023
  YFP fluorescence quenching using Varenicline, 300 nM var: 78.989
  YFP fluorescence quenching using Varenicline, 500 nM var: 79.212
  YFP fluorescence quenching using Varenicline, 1 uM var: 79.538
Second column
  YFP fluorescence quenching using Varenicline, 3 nM var: 60.978
  YFP fluorescence quenching using Varenicline, 30 nM var: 69.433
  YFP fluorescence quenching using Varenicline, 300 nM var: 79.21
  YFP fluorescence quenching using Varenicline, 500 nM var: 79.771
  YFP fluorescence quenching using Varenicline, 1 uM var: 80.577
